Where only a bound is given, the exact number is not on record here.

Consider 25 molecules from patent US20030119023, “Nucleic acid binding polypeptides characterized by flexible linkers connected nucleic acid binding modules” (published 2003).

Data set [1] has as its target 3x2F ZGS (artificial). The data set is described as follows: EMSA; apparent Kd. To be noted: label: 32P. As to the method:
(§1) DNA binding reactions contain the appropriate zinc-finger peptide, binding site and 1 μg competitor DNA (poly dI-dC) in a total volume of 10 μl, which contains: 20 mM Bis-tris propane (pH 7.0), 100 mM NaCl, 5 mM MgCl₂, 50 μM ZnCl₂, 5 mM DTT, 0.1 mg/ml BSA, 0.1% Nonidet P40. Incubations are performed at room temperature for 1 hour.
(§2) Dissociation constants are determined in parallel to the calculation of active peptide concentration. Serial 3, 4 or 5-fold dilutions of crude peptide are made and incubated with radiolabelled binding site (0.1 pM-500 pM depending on the peptide), as above. Samples are run on 7% native polyacrylamide gels and the radioactive signals quantitated by PhosphorImager analysis. The data is then analysed according to linear transformation of the binding equation and plotted in CA-Cricket Graph III (Computer Associates Inc. NY) to generate the apparent dissociation constants. The Kd values reported are the average of at least two separate studies.

The target in another data set is 2x3F ZIF-GAC (artificial). The data set is described as follows: EMSA; apparent Kd. The settings on record: label: 32P. As to the method: as §1, §2
A further data set has as its target 3x2F ZGXL (artificial). Description: EMSA. The settings on record: label: 32P. Here is the method:
as §1
3x2F ZGXL binds the non-contiguous site bsD approximately as tightly as the 3x2F ZGS peptide binds the contiguous 18 bp site, bsC. However, the 3x2F ZGXL peptide binds bsE (containing 2 base pair gaps between target subsites) approximately 500-fold less tightly than it does bsC and bsD, as shown in FIG. 11. This is presumably because it can only bind bsE through 2 fingers.

Data set [2] has as its target ZIF-ZnF-GAC (serine-finger linker) (artificial). The data set is described as follows: EMSA; apparent Kd. The settings on record: label: 32P. As to the method:
as §1, §2
A further set of binding studies is then carried out on the construct containing the non-specific zinc finger linker, ZIF-ZnF-GAC. Although this construct is expected to target (primarily) non-contiguous sequences containing three or four base pairs of non-bound DNA, it is tested against all of the binding sites from ZM to Z10M. […]

Data set [3] deals with 3x2F ZGS (artificial). The data set is described as follows: EMSA; apparent Kd. The settings on record: label: 32P. Here is the method:
as §1, §2
(§3) First the 3x2F ZGS and ZGL peptides are titrated against 12/34/56 (three 6 bp subsites separated by 1 bp, which is represented by a single ‘/’ in the binding site name) and 12//34//56 (three 6 bp subsites separated by 2 bps) binding sites. […] Next, the 3x2F ZGSL and 3x2F ZGLS peptides are targeted against the three non-contiguous sequences: 1234/56, 12/3456 and 12//34//56. […] 3x2F ZGLS show a similar trend in binding affinities.
The source holds these as a separate data set.

Another data set concerns the target 3x2F ZGLS (artificial). The data set is described as follows: EMSA; apparent Kd. To be noted: label: 32P. As to the method:
as §1, §2, §3

Another data set concerns the target 3x2F ZGSL (artificial). The data set is described as follows: EMSA; apparent Kd. The settings on record: label: 32P. As to the method: as §1, §2, §3
A further data set addresses 3x2F ZGL (artificial). Description: EMSA; apparent Kd. To be noted: label: 32P. Here is the method:
as §1, §2, §3

Data set [4] has as its target GAC-F4-ZIF (artificial). The data set is described as follows: EMSA; 10 bp gap spanned without significant loss. To be noted: label: 32P.
Data set [5] deals with ZIF-ZnF-GAC (serine-finger linker) (artificial). The data set is described as follows: EMSA. The settings on record: label: 32P. As to the method: as §1
For this purpose a ‘neutral’ finger is created by replacing the DNA binding residues (those at positions −1, 2, 3, and 6) of wild type ZIF268 finger 2, with serine residues. Serine can act as either an H-bond acceptor or donator, and can therefore interact with all four bases in DNA. This new finger, denoted “ZnF” and flanked by two GERP linkers, is used to join the three-finger peptides of ZIF and the GAC-clone, creating the seven-finger array ZIF-ZnF-GAC (FIG. 17). This peptide is targeted against non-contiguous sites comprising the 9 bp ZIF and GAC-clone recognition sequences separated by 2, 3, 4 or 5 bps of DNA, and also sites bsA and bsC for comparison (FIG. 21).

Data set [6] deals with TF(1-4)-ZIF (TFIIIA F1-4 fused to Zif268) (artificial). Description: EMSA; apparent Kd; table prints gap as X8. To be noted: label: 32P. Here is the method: as §1, §2
(§4) The TF(1-4)-ZIF and TF(1-3)-flex-ZIF peptides are tested against the non-contiguous TF-5,6,7,8,9-Z sites. In these first experiments the DNA composition of the non-bound region is based on the endogenous TFIIIA target site. […] The target sites with 5, 6 or 9 bp gaps are bound at least 5-fold weaker (FIG. 27A). […]

Data set [7] shares this target. Description: EMSA; no preference for gap composition (data not shown). The settings on record: label: 32P.
Data set [8] shares this target. The data set is described as follows: EMSA; apparent Kd; table prints gap as X5. To be noted: label: 32P. Here is the method: as §1, §2
Data set [9] concerns the target Zif268 (wild-type ZIF, three-finger) (UniProt P08046 P08046:333-421). Description: EMSA; Bis-tris propane pH 7.0, 100 mM NaCl, 5 mM MgCl2, 50 uM ZnCl2, room temperature.
For data set [10], the target named is GAC-F4-ZIF (artificial). The data set is described as follows: EMSA; 7 bp gap spanned without significant loss. The settings on record: label: 32P.
Data set [11] concerns the target TF(1-4)-ZIF (TFIIIA F1-4 fused to Zif268) (artificial). Description: EMSA; apparent Kd; table prints gap as X9. The settings on record: label: 32P. As to the method: as §1, §2, §4
Data set [12] concerns the target GAC-F4-ZIF (artificial). The data set is described as follows: EMSA; optimal 9 bp gap. To be noted: label: 32P. Here is the method: as §1
(§5) To determine whether TFIIIA F4 would still function as a linker when taken out of the context of neighbouring TFIIIA fingers, the GAC-F4-ZIF construct is made (FIGS. 14 and 16). This construct can be thought of simply as two ZIF-based DNA binding domains joined by a structured linker (in this case TFIIIA F4). […] In this case, however, the optimal DNA span is found to be 8 or 9 bps, although 7-11 bp stretches could be spanned without a significant loss in binding affinity.

Data set [13] concerns the target TF(1-4)-ZIF (TFIIIA F1-4 fused to Zif268) (artificial). Description: EMSA; apparent Kd; table prints gap as X7. The settings on record: label: 32P. As to the method: as §1, §2, §4
Data set [14] deals with GAC-F4-ZIF (artificial). Description: EMSA; optimal 8 bp gap. The settings on record: label: 32P. Here is the method: as §1, §5
Data set [15] has as its target TF(1-4)-ZIF (TFIIIA F1-4 fused to Zif268) (artificial). Description: EMSA; apparent Kd; table prints gap as X6. To be noted: label: 32P. Here is the method:
as §1, §2, §4

Chain of ZIF-ZnF-GAC (serine-finger linker) (artificial) (chain, as listed by the source): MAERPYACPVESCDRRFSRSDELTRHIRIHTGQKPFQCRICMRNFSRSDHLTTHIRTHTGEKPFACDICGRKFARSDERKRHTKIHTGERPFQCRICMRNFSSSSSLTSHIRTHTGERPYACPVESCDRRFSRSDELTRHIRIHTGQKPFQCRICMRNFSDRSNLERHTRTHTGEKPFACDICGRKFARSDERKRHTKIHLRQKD
Chain of 3x2F ZGS (artificial) (chain, as listed by the source): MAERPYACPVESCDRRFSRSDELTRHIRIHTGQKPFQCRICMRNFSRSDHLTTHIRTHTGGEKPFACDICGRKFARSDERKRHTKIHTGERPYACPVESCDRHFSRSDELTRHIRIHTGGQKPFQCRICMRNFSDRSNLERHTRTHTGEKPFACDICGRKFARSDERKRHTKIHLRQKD
Chain of GAC-F4-ZIF (artificial) (chain, as listed by the source): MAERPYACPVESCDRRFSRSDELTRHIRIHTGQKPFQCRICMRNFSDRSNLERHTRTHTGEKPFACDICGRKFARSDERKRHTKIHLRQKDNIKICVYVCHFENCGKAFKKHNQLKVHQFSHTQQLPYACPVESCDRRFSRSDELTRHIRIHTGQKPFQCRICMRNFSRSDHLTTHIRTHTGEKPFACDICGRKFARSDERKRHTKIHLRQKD
Chain of 3x2F ZGSL (artificial) (chain, as listed by the source): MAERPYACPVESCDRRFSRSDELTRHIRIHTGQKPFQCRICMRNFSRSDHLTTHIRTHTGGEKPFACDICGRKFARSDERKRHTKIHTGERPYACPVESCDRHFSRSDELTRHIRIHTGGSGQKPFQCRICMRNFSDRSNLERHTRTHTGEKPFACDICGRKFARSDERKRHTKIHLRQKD
Chain of 2x3F ZIF-GAC (artificial) (chain, as listed by the source): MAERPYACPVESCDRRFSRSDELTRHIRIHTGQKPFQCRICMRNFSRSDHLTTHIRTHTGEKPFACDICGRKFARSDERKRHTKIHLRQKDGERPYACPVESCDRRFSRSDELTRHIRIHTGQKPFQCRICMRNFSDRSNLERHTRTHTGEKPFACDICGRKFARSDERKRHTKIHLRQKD
Chain of 3x2F ZGLS (artificial) (chain, as listed by the source): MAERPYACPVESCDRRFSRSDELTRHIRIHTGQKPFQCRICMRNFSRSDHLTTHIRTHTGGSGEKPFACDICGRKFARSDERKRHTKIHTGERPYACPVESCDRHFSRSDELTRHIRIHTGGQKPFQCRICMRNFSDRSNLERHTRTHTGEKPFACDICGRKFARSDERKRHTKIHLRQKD
Chain of TF(1-4)-ZIF (TFIIIA F1-4 fused to Zif268) (artificial) (chain, as listed by the source): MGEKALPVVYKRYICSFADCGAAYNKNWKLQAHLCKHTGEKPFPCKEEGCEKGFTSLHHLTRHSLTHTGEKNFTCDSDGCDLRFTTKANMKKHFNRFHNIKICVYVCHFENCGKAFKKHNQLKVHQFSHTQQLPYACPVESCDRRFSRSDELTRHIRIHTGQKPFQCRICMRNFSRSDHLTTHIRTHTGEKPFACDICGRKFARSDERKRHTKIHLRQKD
Chain of 3x2F ZGL (artificial) (chain, as listed by the source): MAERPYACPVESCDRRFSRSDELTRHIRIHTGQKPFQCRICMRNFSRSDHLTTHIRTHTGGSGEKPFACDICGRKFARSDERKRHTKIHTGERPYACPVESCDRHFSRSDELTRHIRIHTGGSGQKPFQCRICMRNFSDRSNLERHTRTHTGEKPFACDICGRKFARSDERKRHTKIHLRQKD
Chain of 3x2F ZGXL (artificial) (chain, as listed by the source): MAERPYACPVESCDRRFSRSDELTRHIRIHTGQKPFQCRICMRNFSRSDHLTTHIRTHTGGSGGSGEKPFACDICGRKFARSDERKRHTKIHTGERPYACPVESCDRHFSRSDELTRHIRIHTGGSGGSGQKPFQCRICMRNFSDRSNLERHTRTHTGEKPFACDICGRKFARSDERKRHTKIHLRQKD

B1: bs4 (123///56) (dsDNA)
DNA 1: GCGGACATCGCGTGGGCG
DNA 2: CGCCCACGCGATGTCCGC
Take B1: the Kd is 0.89 nM with 3x2F ZGS [1] and 0.015 nM in the data set with 2x3F ZIF-GAC.

B2: bsC (123456, ZM) (dsDNA)
DNA 1: GCGGACGCGGCGTGGGCG
DNA 2: CGCCCACGCCGCGTCCGC
B2: the results for the Kd (in the data set with 2x3F ZIF-GAC; in data set [2]) were 0.0014 nM and 0.007 nM, respectively. Moreover, in the data set with 3x2F ZGXL, the binding result is reported as “binds”.

B3: bsD (12/34/56) (dsDNA)
DNA 1: GCGGACTGCGGCGTTGGGCG
DNA 2: CGCCCAACGCCGCAGTCCGC
With B3, the Kd with 3x2F ZGS [3] was determined as 18 nM; in the data set with 3x2F ZGLS, 0.12 nM; with 3x2F ZGSL, 0.11 nM; in the data set with 3x2F ZGL, 0.005 nM.

B4: bsE2 (dsDNA)
DNA 1: GCGTGGGCGTTAGTACCTGGCGGACGCG
DNA 2: CGCGTCCGCCAGGTACTAACGCCCACGC
As for B4, the binding result in the data set with GAC-F4-ZIF [4] is recorded as “binds”.

B5: bsF (1234/56 in Table 5) (dsDNA)
DNA 1: GCGGACTGCGGCGTGGGCG
DNA 2: CGCCCACGCCGCAGTCCGC
As to B5, the Kd with 3x2F ZGS [3] was 0.054 nM; with 3x2F ZGLS it was 0.089 nM; in the data set with 3x2F ZGSL, 0.003 nM.

B6: bs2 (123/56) (dsDNA)
DNA 1: GCGGACTGCGTGGGCG
DNA 2: CGCCCACGCAGTCCGC
Turning to B6, the Kd in the data set with 3x2F ZGS [1] is 0.63 nM; with 2x3F ZIF-GAC, 0.014 nM.

B7: Z4G (dsDNA)
DNA 1: GCGGACGCGTAGTGCGTGGGCG
DNA 2: CGCCCACGCACTACGCGTCCGC
B7 registered a binding signal in [5] of no less than 500 fold stronger than bsA.

B8: TF8Z (bsD1) (dsDNA)
DNA 1: GCGTGGGCGTAGTACCTGGATGGGAGAC
DNA 2: GTCTCCCATCCAGGTACTACGCCCACGC
With B8, in [6], the Kd is 0.003 nM.

B9: bsE (12//34//56) (dsDNA)
DNA 1: GCGGAGTCGCGGCGTCTGGGCG
DNA 2: CGCCCAGACGCCGCGACTCCGC
B9: the Kd turned out to be 12 nM in the data set with 3x2F ZGLS, 12 nM in the data set with 3x2F ZGSL and 11 nM with 3x2F ZGL.

B10: bsH1 (dsDNA)
DNA 1: GCGTGGGCGAAAAAAGGATGGGAGAC
DNA 2: GTCTCCCATCCTTTTTTCGCCCACGC
Take B10: the binding result in data set [7] is given as “binds”.

B11: TF5Z (bsA1) (dsDNA)
DNA 1: GCGTGGGCGTACCTGGATGGGAGAC
DNA 2: GTCTCCCATCCAGGTACGCCCACGC
With B11, in data set [8], the Kd is 0.021 nM.

B12: bsG (12/3456 in Table 5) (dsDNA)
DNA 1: GCGGACGCGGCGTTGGGCG
DNA 2: CGCCCAACGCCGCGTCCGC
Turning to B12, the figures for the Kd in the data set with 3x2F ZGS [3], with 3x2F ZGLS and with 3x2F ZGSL were 0.077 nM, 0.005 nM and 0.073 nM, respectively.

B13: Z3G (dsDNA)
DNA 1: GCGGACGCGAGTGCGTGGGCG
DNA 2: CGCCCACGCACTCGCGTCCGC
In data set [5], B13 had a binding signal of no less than 500 fold stronger than bsA.

B14: Z2G (dsDNA)
DNA 1: GCGGACGCGGTGCGTGGGCG
DNA 2: CGCCCACGCACCGCGTCCGC
B14 registered a binding signal in data set [5] of no less than 500 fold stronger than bsA.

B15: bsG1 (dsDNA)
DNA 1: GCGTGGGCGCTTGACGGATGGGAGAC
DNA 2: GTCTCCCATCCGTCAAGCGCCCACGC
As for B15, in data set [7], the binding result is “binds”.

B16: bsA (ZIF site) (dsDNA)
DNA 1: GCGTGGGCG
DNA 2: CGCCCACGC
As for B16, the Kd in data set [9] was 0.45 nM.

B17: bsB2 (dsDNA)
DNA 1: GCGTGGGCGGTACCTGGCGGACGCG
DNA 2: CGCGTCCGCCAGGTACCGCCCACGC
Regarding B17, in the data set with GAC-F4-ZIF [10], the binding result is given as “binds”.

B18: TF9Z (bsE1) (dsDNA)
DNA 1: GCGTGGGCGTTAGTACCTGGATGGGAGAC
DNA 2: GTCTCCCATCCAGGTACTAACGCCCACGC
For the molecule B18, in data set [11], the Kd turned out to be 0.015 nM.

B19: Z5G (dsDNA)
DNA 1: GCGGACGCGCTAGTGCGTGGGCG
DNA 2: CGCCCACGCACTAGCGCGTCCGC
B19: the binding signal in data set [5] was no less than 500 fold stronger than bsA.

B20: bs3 (123//56) (dsDNA)
DNA 1: GCGGACTCGCGTGGGCG
DNA 2: CGCCCACGCGAGTCCGC
On to B20, for which the Kd stood at 0.27 nM with 3x2F ZGS [1] and 0.014 nM with 2x3F ZIF-GAC.

B21: bs1 (12356) (dsDNA)
DNA 1: GCGGACGCGTGGGCG
DNA 2: CGCCCACGCGTCCGC
With B21, the Kd with 3x2F ZGS [1] is 22 nM; with 2x3F ZIF-GAC, 0.36 nM.

B22: bsD2 (dsDNA)
DNA 1: GCGTGGGCGTAGTACCTGGCGGACGCG
DNA 2: CGCGTCCGCCAGGTACTACGCCCACGC
For B22, in the data set with GAC-F4-ZIF [12], the binding signal is no less than 125 fold stronger than bsA.

B23: TF7Z (bsC1) (dsDNA)
DNA 1: GCGTGGGCGAGTACCTGGATGGGAGAC
DNA 2: GTCTCCCATCCAGGTACTCGCCCACGC
Regarding B23, the Kd in [13] worked out at 0.003 nM.

B24: bsC2 (dsDNA)
DNA 1: GCGTGGGCGAGTACCTGGCGGACGCG
DNA 2: CGCGTCCGCCAGGTACTCGCCCACGC
As to B24, the binding signal with GAC-F4-ZIF [14] was no less than 125 fold stronger than bsA.

B25: TF6Z (bsB1) (dsDNA)
DNA 1: GCGTGGGCGGTACCTGGATGGGAGAC
DNA 2: GTCTCCCATCCAGGTACCGCCCACGC
Turning to B25, in data set [15], the Kd was 0.017 nM.
